Source: patent US20110165081A1 (published 2011)

Target: T1, recombinant soluble PSMA (rsPSMA) (human, UniProt Q04609 44-750)
T1 construct: Oligomeric state not specified for the assay; also called secreted rsPSMA; PSMAECTO
Test: Biacore SPR, mAb captured by anti-human IgG, rsPSMA in flow
Procedure: It is ideal for screening crude supernatants.
The entire sensor chip surface was conditioned with five injections of conditioning solution (1 M NaCl, 50 mM NaOH) and equilibrated with PBS buffer containing 0.005% polysorbate 20. Two to three thousand resonance units (RU) of biotinylated anti-human IgG antibody (Sigma) were immobilized onto the SA chip followed by an injection of regeneration buffer (glycine-HCl, pH 2.2). […] For each antibody at one concentration, the chip was regenerated and equilibrated.

T1 sequence (Q04609 44-750): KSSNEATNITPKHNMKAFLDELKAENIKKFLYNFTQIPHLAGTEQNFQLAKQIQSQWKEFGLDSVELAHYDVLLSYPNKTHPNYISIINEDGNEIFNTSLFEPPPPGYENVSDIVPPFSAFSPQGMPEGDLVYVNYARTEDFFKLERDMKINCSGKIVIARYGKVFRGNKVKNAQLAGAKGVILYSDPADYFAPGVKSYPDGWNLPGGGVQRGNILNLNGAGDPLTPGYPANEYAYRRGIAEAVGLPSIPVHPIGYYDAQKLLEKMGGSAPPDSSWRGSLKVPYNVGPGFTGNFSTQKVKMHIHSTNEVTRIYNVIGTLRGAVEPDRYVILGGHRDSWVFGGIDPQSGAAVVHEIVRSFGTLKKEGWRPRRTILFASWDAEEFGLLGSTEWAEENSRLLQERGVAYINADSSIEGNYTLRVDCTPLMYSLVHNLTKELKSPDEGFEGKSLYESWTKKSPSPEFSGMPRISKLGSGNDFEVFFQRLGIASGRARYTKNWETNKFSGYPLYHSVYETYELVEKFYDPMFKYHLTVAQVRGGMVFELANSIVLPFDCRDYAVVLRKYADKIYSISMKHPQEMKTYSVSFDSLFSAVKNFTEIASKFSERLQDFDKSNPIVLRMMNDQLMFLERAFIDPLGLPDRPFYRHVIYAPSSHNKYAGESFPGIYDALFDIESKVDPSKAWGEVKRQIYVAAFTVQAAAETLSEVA

B1: PSMA 10.3 (antibody, V domains shown)
VH: QEQLVESGGGVVQPGRSLRLSCAASGFTFSTYGMHWVRQAPGKGLEWVAVTWHDGSNKYYADSVKGRFTISRDNSKNTLYLQMNSLRAEDTAVYYCARGGVGATYYYYYGMDVWGQGTTVTVSS
VL: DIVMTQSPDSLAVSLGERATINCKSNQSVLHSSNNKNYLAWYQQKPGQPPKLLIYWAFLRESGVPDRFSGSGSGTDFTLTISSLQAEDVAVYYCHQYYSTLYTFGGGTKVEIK
B1 showed a Kd of 0.193 nM.
